In patent US20150152166A1 (THERACLONE SCIENCES, published 2015):
Positions count from the first letter of the chain named.

T1: CMV gp116 epitope AD2 site peptide SHRANETIYNTTLKYGDTTGTNTTK (CMV (human cytomegalovirus), not fully specified)
T1 construct: Synthetic polypeptide corresponding to the AD2 site of gp116 (glycoprotein B); A biotinylated form was used to select B cells; also called CMV gp116 AD2 peptide
T1 peptide: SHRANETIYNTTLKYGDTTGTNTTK

B1: 2N9 human anti-CMV antibody (antibody, V domains shown)
VH: QVQLVESGGGVVQPGRSLRLSCAASGFTFSSNGIHWVRQAPGKGLDWVAVISSDANDKQYADSVKGRFTISRDNSKNMVYLQMNSLRVEDTAVYFCARDGTCSGGNCYSGLIDYWGRGILVTVSS
VL: EIVLTQSPATLSLSPGERATLSCRASQSVGGYLAWYQQKPGQAPRLLIYDASIRATGIPARFSGSGSGTDFTLTISSLEPEDFAVYYCHQRSNWPPLTFGGGTKVDIKR
notes: Recombinant human IgG, gamma heavy and kappa light chain; (MDMR); If the listing entry has two more residues, the range shifts by 2; also called TCN-202; mAb C-2N9
B2: 2F10 human anti-CMV antibody (antibody, V domains shown)
VH: QVHLVESGGGVVQPGRALRLSCAATGFTFSNHGIHWVRQAPGKGLEWLAVISSDGDDDRYADSVKGRFSVSRDNSKNTVHLQMNGLRPDDTAIYFCARDGRCGEPKCYSGLPDYWGRGTLVTVSS
VL: B1 VL with E17D, I48L, I53N, V85L, H89L, S92N, N93T, D106E
notes: Recombinant human IgG, gamma heavy and kappa light chain, made by transient transfection of 293 cells; also called mAb A-2F10
B3: 5P9 human anti-CMV antibody (antibody, V domains shown)
VH: QVQLVESGGGVIQPGRSLRLSCVASKFIFSNHGIHWVRQAPGKGLEWVAVISKDGTNAHYADSVRGRFSISRDNSKDTVFLEMRSLRPEDTAVYYCAREGRCIEEKCYSGQIDYWGQGSLVTVSS
VL: B1 VL with V3L, G31R, L33M, K39R, E79Q, P80T, V85I, H89Q, N93S, D106E
notes: Recombinant human IgG, gamma heavy and kappa light chain; also called mAb E-5P9
B4: 4P12 human anti-CMV antibody (antibody, V domains shown)
VH: B3 VH with K106N
VL: B1 VL with V3L, G31R, L33M, K39R, E79Q, V85I, H89Q, N93S, D106E
notes: Recombinant human IgG, gamma heavy and kappa light chain; also called mAb D-4P12

Tests used:
[1] = biological target: T1, CMV gp116 epitope AD2 site peptide …; assay: kinetic affinity measurement, method not stated; antigen taken as CMV gp116 AD2 peptide
[2] = biological target: T1, CMV gp116 epitope AD2 site peptide …; assay: kinetic affinity measurement, method not stated; antigen taken as AD2 peptide; same value as r13, table re-sorted by koff
[3] = biological target: GPCMV gB (glycoprotein B of guinea pig CMV strain V545/82) (guinea pig cytomegalovirus); assay: cell-based or functional assay
[4] = biological target: T1, CMV gp116 epitope AD2 site peptide …; assay: kinetic affinity measurement, method not stated; antigen taken as AD2 peptide; same value as r8, table re-sorted by koff
[5] = biological target: T1, CMV gp116 epitope AD2 site peptide …; assay: kinetic affinity measurement, method not stated; antigen taken as AD2 peptide; same value as r9, table re-sorted by koff
[6] = biological target: T1, CMV gp116 epitope AD2 site peptide …; assay: kinetic affinity measurement, method not stated; antigen taken as AD2 peptide; same value as r12, table re-sorted by koff

Binder	Kd [1]	koff [1]	kon [1]	Kd [2]	koff [2]	kon [2]	neutralization of GPCMV V545/82 entry into JH4 cells; highest concentration tested without effect [3]	Kd [4]	koff [4]	kon [4]	Kd [5]	koff [5]	kon [5]	Kd [6]	koff [6]	kon [6]
B1	11.6 nM	0.03 s⁻¹	2.6e+06 M⁻¹ s⁻¹	11.6 nM	0.03 s⁻¹	2.6e+06 M⁻¹ s⁻¹	> 300 ng/mL									
B2	1.98 nM	0.00111 s⁻¹	562000 M⁻¹ s⁻¹				> 300 ng/mL	1.98 nM	0.00111 s⁻¹	562000 M⁻¹ s⁻¹						
B3	4.9 nM	0.00121 s⁻¹	245000 M⁻¹ s⁻¹				> 300 ng/mL				4.9 nM	0.00121 s⁻¹	245000 M⁻¹ s⁻¹			
B4	10.9 nM	0.0019 s⁻¹	175000 M⁻¹ s⁻¹				> 300 ng/mL							10.9 nM	0.0019 s⁻¹	175000 M⁻¹ s⁻¹
